Where a SMILES comes first, the peptide text is derived from it. Where no end group is shown, it is not given here. [ ]: non-standard residue; d: D form. Nle = CCCC[C@H](N)C(=O)O
Tests used:
p53 phosphoserine 15 = test: p53 Ser15 phosphorylation in lymphoblasts (immunoprecipitation and immunoblot); assay type: cell-based, human; details: ALLN 90 min
Experimental: Posttranslational modification of p53 on Ser^15 in response to ionizing radiation. Monoclonal antibodies against a chemically synthesized p53 phosphoserine-15 peptide (amino acids 9-22) were used to immunoblot synthetic peptides (1×, 50 μg) consisting of the first 24 amino acids of p53 with (1-24^S15-P) or without (1-24) phosphoserine 15. Normal WT (2184) or AT (1526) lymphoblasts were untreated or treated with 5 Gy IR (IR) or 20 mM ALLN for 90 min. p53 was immunoprecipitated, subjected to SDS-PAGE (7.5% gel), transferred to nitrocellulose, and immunoblotted with the monoclonal antibody to phosphoserine 15 p53 (upper panel). Blots were then stripped and immunoblotted with antibodies to p53 (lower panel).
Normal (2184) and AT (1526) EBV immortalized human lymphoblasts were irradiated with a ^137Cs source or treated with 20 mm ALLN (Sigma) for 90 min. Cells were then harvested, lysed, and p53 was immunoprecipitated as described (Siliciano et al., Genes Dev., 11:3471, 1997). Immunoprecipitates were resolved by non-reducing SDS-PAGE, transferred to nitrocellulose and immunoblotted with monoclonal antibody to phosphoserine 15. Blots were stripped and reprobed with p53-specific monoclonal antibodies (Ab-2 and Ab-6).

[1] = system: p95 Ser343 phosphorylation; test: IR-induced phosphorylation of Myc-p95 on Ser343 in co-transfected 293T cells; assay type: cell-based; details: co-transfected with p95 into 293T cells, 5 Gy IR
Excerpt: FIGS. 4A and 4B. In vivo phosphorylation of p95 on ser343 by ATM upon ionizing irradiation. (A) Phosphorylation of p95 on Ser343 by IR in an ATM-dependent manner in vivo. […] The expression of Flag-ATM in each cell lysates was detected with anti-Flag antibody (top panel). Immunoprecipitated Myc-p95 was blotted with anti-a-p95-phosphoserine 343 antibody (middle panel) or anti-Myc antibody (lower panel). (B) Phosphorylation of endogenous p95 on Ser343 in normal cells, but not AT cells, after IR. Normal (WT, GM0536) or AT (GM1526) lymphoblasts were treated with either 0 (−) or 5 (+) Gy IR. Endogenous p95 was immunoprecipitated and blotted with anti-a-p95-phosphoserine 343 antibody (top panel) or anti-p95 antibody (lower panel).
In vivo phosphorylation of p95. Myc-tagged p95 (3 μg) was transiently co-transfected into 293T cells with wtATM, kdATM, or pCDNA3 (7μg) using calcium phosphate. After 2 days, cells were harvested and Myc-p95 was immunoprecipitated, subjected to SDS-PAGE (7.5%), transferred to nitrocelluose, and immunoblotted with α-cMyc antibody or the α-p95-phosphoserine 343 polyclonal mouse antibody. For metabolic labeling, the cells were washed with phosphate free RPMI plus 10% dialyzed fetal bovine serum and incubated for 30 min before irradiation. […] After electrophoresis in 7.5% SDS-PAGE, radiolabeled p95 and ATM were visualized and quantified on a PhosphorImager.

ATR = molecular target: T1, ATR (Homo sapiens, UniProt Q13535); test: In vitro kinase assay, ATR with GST-peptide / GST-fusion substrates; assay type: biochemical; details: GST-peptide substrate; relative to the p53ser15 site
T1 construct: made in house; host or cells: 293T cells, transient transfection with pBJF-FRPwt, anti-FLAG M2 immunoprecipitate
Experimental: (§1) FIGS. 1A, 1B, and 1C. Phosphorylation of GST-p53 mutant peptides (amino acids 9-21) by ATM, ATR, and DNA-PK in vitro. In vitro kinase assays with immunoprecipitated, transfected flag-tagged ATM (A) or ATR (B) or purified DNA-PK (C) were performed with GST-p53 peptides containing the amino acid substitutions indicated. The amount of 32P-labeled GST-peptides was quantitated with a PhosphorImager and was normalized for each of the kinases to the level of phosphorylation of wild-type GST-p53.
(§2) FIGS. 2A, 2B, and 2C. Phosphorylation of candidate targets of by ATM, ATR and DNA-PK in vitro. GST-peptides containing the putative target sequences were used as substrates for the kinase assay.
Transfection and Kinase Activity Assays. 293T cells were transiently transfected with 10 μg of either pcDNA-FLAG-ATMwt, pcDNA-FLAG-ATMkd, pBJF-FRPwt or pBJF-FRPkd (Cliby et al., EMBO J., 17:159, 1998) using calcium phosphate and harvested two days later. Cells were lysed through sonication in TGN buffer [50 mM Tris (pH 7.5), 50 mM glycerophosphate, 150 mM NaCl, 10% glycerol, 1% Tween 20, 1 mM NaF, 1 mM NaVO4, 1 mM PMSF, […] Pepstatin A, 5 μg/ml leupeptin, 10 μg/ml Aprotinin and 1 mM DTT] as described (Brunn et al., Science, 277:99-101,1997). After centrifugation at 13,000 ×g, 2 mg of extract were incubated with mouse IgG and protein A/G sepharose beads (Calbiochem). FLAG-tagged proteins were then immunoprecipitated with anti-FLAG M2 monoclonal antibody (Eastman Kodak Company) and protein A/G sepharose beads. Immunoprecipitates were washed twice with TGN buffer, once with 100 mM Tris (pH 7.5) plus 0.5 M LiCl, and twice with kinase buffer [10 mM Hepes (pH 7.5), 50 mM glycerophosphate, 50 mM NaCl, 10 mM MgCl2, 10 mM MnCl2, 5 μM ATP, and 1 mM DTT]. Kinase reactions were initiated by resuspending washed beads in 30 μl of kinase buffer containing 10 μCi [γ-^32P]ATP and 1 μg GSTp531-101 and incubated for 30 minutes at 30° C. Proteins were electrophoretically separated by SDS-polyacrylamide gel electrophoresis, transferred to nitrocellulose, and analyzed on a PhosphorImager. FLAG-tagged proteins and GSTp531-101 were subjected to immunoblotting with either anti-FLAG M2 antibody or monoclonal antibodies directed towards the NH2-terminus of p53 (Ab-2 and Ab-6, Calbiochem) as described (Siliciano et al., Genes Dev., 11:3471, 1997).
Phosphorylation of Ser^15 of p53 by ATM and ATR/FRP1 in vitro. […] Proteins from each reaction were separated by SDS polyacrylamide gel electrophoresis (7% gel), transferred to nitrocellulose, and analyzed either on a PhosphorImager or by immunoblotting. Amounts of FLAG-tagged ATM or ATR in each kinase reaction were measured by immunoblotting with anti-FLAG M2 (top panel) and amount of [γ^32P]phosphate incorporated into ATM or ATR during the reaction (lower panel). […] An upper immunoreactive band represents phosphorylated GSTp53 fusion protein. The same exposures were used for ATM, ATR/FRP1 and corresponding substrate proteins.
(§3) Plasmids and GST-fusion protein production. For GST fusion peptide expression vectors, complementary oligonucleotides encoding desired peptides (14 amino acids) were cloned into the BamHI/SmaI site of pGEX-2T (Pharmacia). The constructs were confirmed by restriction enzyme digests and DNA sequencing. To construct the larger GST-p95 (327-391) protein fragment, p95 DNA encoding amino acids 327-391 was amplified by PCR with Pfu polymerase using the following primers: 5′ sense,
In vitro kinase assays and immunoprecipitation. […] Cleared supernatants were immunoprecipitated with anti-Flag M2 antibody and protein A/G agarose, the beads were washed with TGN buffer followed by TGN buffer plus 0.5 M LiCl, and two washes with kinase buffer [20 mM HEPES (pH 7.5), 50 mM NaCl, 10 mM MgCl2, 1 mM dithiothreitol (DTT) and 10 mM MnCl2]. […] ATP and […] of GST-fusion substrate (GST-p53:1-101), in varying concentration of Mn^2+. […]

DNA-PK = DNA-PK (Homo sapiens, UniProt P78527); test: In vitro kinase assay, purified DNA-PK with GST-peptide / GST-fusion substrates; assay type: biochemical; details: GST-peptide substrate; relative to the p53ser15 site
Experimental: as §1, §2, §3
In vitro kinase assays and immunoprecipitation. […] Cleared supernatants were immunoprecipitated with anti-Flag M2 antibody and protein A/G agarose, the beads were washed with TGN buffer followed by TGN buffer plus 0.5 M LiCl, and two washes with kinase buffer [20 mM HEPES (pH 7.5), 50 mM NaCl, 10 mM MgCl2, 1 mM dithiothreitol (DTT) and 10 mM MnCl2]. […] ATP and […] of GST-fusion substrate (GST-p53:1-101), in varying concentration of Mn^2+. The kinase reaction was conducted at 30° C. for 20 min and stopped by the addition of SDS-PAGE loading buffer. Proteins were separated on SDS-polyacrylamide gel electrophoresis (SDS-PAGE) and transferred to nitrocellulose. Radiolabeled proteins were visualized and quantitated on a Phosphorimager (Molecular Dynamics). Use of equivalent amounts of flag-tagged ATM or ATR in the different lanes was confirmed by immunoblotting with anti-flag antibody. In some reactions, either supercoiled DNA (pBluescript II KS, Stratagene) or linearized DNA (pBluescript II KS cut with EcoR1) was added ([…]). For endogenous ATM kinase reactions, endogenous ATM was immunoprecipitated from GM0536 lymphhoblasts with ATM monoclonal antibody (D16.11) in M buffer (PBS, 10% glycerol, 0.2% Tween 20, 0.3% NP-40, 1 mM NaF, 1 mM Na3VO4, 1 mM PMSF, 1x protease inhibitor mixture]. After washing with M buffer and kinase buffer, in vitro kinase reactions were carried out according to procedures described above. The DNA-PK in vitro kinase reaction was performed as previously described (Gottlieb and Jackson, 1993), using 20 ng each of DNA-PKcs or DNA-PK (20 ng DNA-PKcs premixed with 20 ng Ku 70/80).

ATM kinase = molecular target: T2, ATM kinase (Homo sapiens, UniProt Q13315); test: In vitro kinase assay, ATM with GST-peptide / GST-fusion substrates; assay type: biochemical; details: GST-peptide substrate; relative to the p53ser15 site;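 further: immunoprecipitated ATM incubated with [γ-32P]ATP at 30 °C for 20 min, substrates resolved by SDS-PAGE and radiolabel incorporation quantified by PhosphorImager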
T2 construct: The full-length cDNA encoding NH2-terminal, FLAG-tagged wild-type ATM; made in house; host or cells: 293T cells, transient transfection with pcDNA-FLAG-ATMwt, anti-FLAG M2 immunoprecipitate on beads
T2 sequence (Q13315 whole entry, the tested form may be a part): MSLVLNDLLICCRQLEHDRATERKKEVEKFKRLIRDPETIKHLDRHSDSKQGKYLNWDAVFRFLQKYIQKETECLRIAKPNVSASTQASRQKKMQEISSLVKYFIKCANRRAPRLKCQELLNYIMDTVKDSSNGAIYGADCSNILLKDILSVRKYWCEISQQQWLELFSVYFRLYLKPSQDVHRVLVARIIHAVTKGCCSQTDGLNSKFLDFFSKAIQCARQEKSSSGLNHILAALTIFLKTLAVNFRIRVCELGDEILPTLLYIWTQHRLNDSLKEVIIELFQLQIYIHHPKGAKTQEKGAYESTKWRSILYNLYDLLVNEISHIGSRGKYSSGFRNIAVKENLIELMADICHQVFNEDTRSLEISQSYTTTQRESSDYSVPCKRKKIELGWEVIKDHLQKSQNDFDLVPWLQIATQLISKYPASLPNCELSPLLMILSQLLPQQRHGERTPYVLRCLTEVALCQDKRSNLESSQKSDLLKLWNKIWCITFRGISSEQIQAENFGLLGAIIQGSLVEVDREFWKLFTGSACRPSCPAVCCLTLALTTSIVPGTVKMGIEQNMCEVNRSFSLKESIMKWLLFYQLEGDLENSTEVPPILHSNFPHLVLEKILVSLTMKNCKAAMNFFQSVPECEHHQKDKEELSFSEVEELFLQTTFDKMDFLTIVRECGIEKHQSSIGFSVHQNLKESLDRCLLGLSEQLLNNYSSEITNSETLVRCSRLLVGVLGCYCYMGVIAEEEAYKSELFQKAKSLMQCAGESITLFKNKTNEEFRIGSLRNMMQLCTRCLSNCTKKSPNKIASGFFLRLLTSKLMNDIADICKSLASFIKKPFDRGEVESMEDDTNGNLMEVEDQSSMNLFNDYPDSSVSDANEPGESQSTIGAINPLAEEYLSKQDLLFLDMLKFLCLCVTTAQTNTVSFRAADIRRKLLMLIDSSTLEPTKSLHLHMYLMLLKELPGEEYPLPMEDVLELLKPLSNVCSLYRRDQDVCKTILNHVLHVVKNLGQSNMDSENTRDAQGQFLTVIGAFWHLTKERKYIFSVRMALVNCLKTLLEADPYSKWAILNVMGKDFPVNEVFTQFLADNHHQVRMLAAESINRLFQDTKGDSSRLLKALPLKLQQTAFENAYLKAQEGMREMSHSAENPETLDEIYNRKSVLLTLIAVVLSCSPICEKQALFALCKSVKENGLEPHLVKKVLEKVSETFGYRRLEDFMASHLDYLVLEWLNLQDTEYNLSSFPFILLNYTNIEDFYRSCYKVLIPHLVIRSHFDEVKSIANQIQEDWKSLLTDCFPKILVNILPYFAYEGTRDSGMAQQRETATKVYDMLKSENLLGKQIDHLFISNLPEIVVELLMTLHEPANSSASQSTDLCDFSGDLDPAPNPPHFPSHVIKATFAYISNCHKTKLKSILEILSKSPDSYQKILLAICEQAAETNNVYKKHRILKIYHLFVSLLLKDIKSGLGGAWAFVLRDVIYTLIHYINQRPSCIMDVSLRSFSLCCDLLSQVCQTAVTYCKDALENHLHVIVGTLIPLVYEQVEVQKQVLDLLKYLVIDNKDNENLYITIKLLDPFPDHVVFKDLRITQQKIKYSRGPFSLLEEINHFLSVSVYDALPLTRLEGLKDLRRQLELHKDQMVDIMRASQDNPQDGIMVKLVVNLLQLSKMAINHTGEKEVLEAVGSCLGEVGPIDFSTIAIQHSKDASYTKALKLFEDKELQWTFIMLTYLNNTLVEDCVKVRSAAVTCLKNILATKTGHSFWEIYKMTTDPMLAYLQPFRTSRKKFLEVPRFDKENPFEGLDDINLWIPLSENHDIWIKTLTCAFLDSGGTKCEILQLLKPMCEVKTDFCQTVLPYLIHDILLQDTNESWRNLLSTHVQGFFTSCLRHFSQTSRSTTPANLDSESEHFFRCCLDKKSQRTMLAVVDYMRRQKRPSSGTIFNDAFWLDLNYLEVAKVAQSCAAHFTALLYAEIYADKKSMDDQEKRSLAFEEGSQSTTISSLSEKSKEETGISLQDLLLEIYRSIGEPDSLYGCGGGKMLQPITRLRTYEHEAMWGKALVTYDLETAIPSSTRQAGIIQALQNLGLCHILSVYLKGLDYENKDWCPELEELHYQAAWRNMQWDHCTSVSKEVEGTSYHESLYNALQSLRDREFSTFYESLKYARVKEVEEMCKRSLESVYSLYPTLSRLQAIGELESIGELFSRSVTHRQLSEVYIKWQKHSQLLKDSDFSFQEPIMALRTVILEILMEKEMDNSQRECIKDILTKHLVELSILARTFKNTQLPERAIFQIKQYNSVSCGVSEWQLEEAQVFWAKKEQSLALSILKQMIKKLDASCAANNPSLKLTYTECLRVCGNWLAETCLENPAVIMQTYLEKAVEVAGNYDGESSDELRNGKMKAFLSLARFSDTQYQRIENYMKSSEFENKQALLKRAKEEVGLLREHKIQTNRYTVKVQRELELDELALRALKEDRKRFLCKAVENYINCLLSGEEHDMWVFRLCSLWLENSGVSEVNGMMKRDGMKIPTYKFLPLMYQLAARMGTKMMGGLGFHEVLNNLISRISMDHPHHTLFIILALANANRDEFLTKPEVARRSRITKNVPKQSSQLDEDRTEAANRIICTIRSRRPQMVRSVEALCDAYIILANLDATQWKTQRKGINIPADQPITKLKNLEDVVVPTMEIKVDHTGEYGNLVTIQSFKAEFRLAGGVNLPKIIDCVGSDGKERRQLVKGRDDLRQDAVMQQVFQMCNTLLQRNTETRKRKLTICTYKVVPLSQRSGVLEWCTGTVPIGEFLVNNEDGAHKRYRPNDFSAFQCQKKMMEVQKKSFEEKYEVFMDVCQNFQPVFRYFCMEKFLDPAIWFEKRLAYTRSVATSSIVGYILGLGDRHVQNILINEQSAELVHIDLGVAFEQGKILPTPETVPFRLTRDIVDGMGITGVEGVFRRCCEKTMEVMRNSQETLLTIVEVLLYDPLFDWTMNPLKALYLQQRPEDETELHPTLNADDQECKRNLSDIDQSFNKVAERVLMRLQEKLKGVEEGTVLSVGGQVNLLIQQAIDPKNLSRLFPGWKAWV

Row | Compound | effect on p53 protein (p53 phosphoserine 15; lymphoblasts) | Phosphoserine 15 of p53 (p53 phosphoserine 15; normal lymphoblasts) | IR-induced phosphorylation of p95ser343 [1] | Relative Phosphorylation (%) ATR (ATR) [%] | Relative Phosphorylation (%) DNA-PK (DNA-PK) [%] | Relative Phosphorylation (%) ATM (ATM kinase) [%]
1 | CCCC[C@@H](C=O)NC(=O)[C@H](CC(C)C)NC(=O)[C@H](CC(C)C)NC(C)=O [ALLN, acetyl-Leu-Leu-norleucinal] (Ac-Leu-Leu-[Nle]-aldehyde) | stabilization of p53 protein | undetectable |  |  |  | 
2 | kinase-inactive form of ATM: FLAG-tagged full-length ATM mutant D2870A and N2875K, kinase-dead, dominant-negative |  |  | significantly inhibited |  |  | 
3 | β-ADAPTIN: GST-peptide CRAPEVSQHVYQAY (SEQ ID NO:28), S935 (not fully specified (N-terminus); also: GST fusion; listed as Homo sapiens) |  |  |  | 22 | 2 | 5
4 | ATM S440: GST-peptide PLLMILSQLLPQQR (SEQ ID NO:24), S440 of ATM (also: GST fusion) |  |  |  | 55 | 7 | 33
5 | p120E4F: GST-peptide APEPPVSQELPCSR (SEQ ID NO:31), S355 (not fully specified (N-terminus); also: GST fusion; listed as Homo sapiens) |  |  |  | 30 | 2 | 11
6 | MRE11 (SQ3): GST-peptide RARALRSQSEESAS (SEQ ID NO:13), S531 (also: GST fusion) |  |  |  | 13 | <1 | <1
7 | p53 S37: GST-peptide VLSPLPSQAMDDLM (SEQ ID NO:8), p53 serine 37 site (not fully specified (N-terminus); also: GST fusion; listed as Homo sapiens) |  |  |  | 31 | 132 | 9
8 | WRN (SQ1): GST-peptide EKAYSSSQPVISAQ (SEQ ID NO:21), S1141 (not fully specified (N-terminus); also: GST fusion; listed as Homo sapiens) |  |  |  | 49 | 14 | 25
9 | WRN (SQ2): GST-peptide TIGMHLSQAVKAGC (SEQ ID NO:20), S1292 (not fully specified (N-terminus); also: GST fusion; listed as Homo sapiens) |  |  |  | 33 | 5 | 10
